Consider 20 sequences from a protein production outcome set (Wang et al. 2014).

A short description of this data set: label from the status in PepcDB records.
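Further: failed if final PepcDB status was selected cloned or expressed and not failed if soluble or beyond.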

As for “MKINLLQYIAGFLGFIALFYGIFSLIREYHFLEIKSLEVFVLIFFGFFAITYAFTDRIMIEKPFALTFAVILFYLSLITPLPLTNKILLITGGIIETQLASRKGVKGTVYIILGILTLIYFVYAHFINLSSILSLIGIGLSSLIIVLGNRDRKVKGISYLTYPVGIPLVVYGINGFFPLSINPIFIIVGLAIVLLNLLPSKGIPSSDYDLKLDQKLCNDIQRSECKDVIQIYKKYMVYIPQHCLDKVVLCTINQNDMQNFNLVINNSLARSVAERYVDKMSPEMLYSLALLSSRKKELLELACKKGYKKACEQTKPILDMKNWDPKVWVGKEIYNYNIVDIIGVGGTSYILKGEKDGNFYALKIPLINYLNNVMDLVGESSKLIELSNKSPYIVRLYAIYADQLDVKEILGGNPEIYYNKPPMLVIELMKGGSINDVINVKELVKSEYWKKIVFITTARIAEALETIHSEGYVHCDVKPQNVLFNEKLPPNARLAYDNLKNGKIIVKLADLGSAVKAGEKPFSYTPAYVSFDLVKSTAFGGVSPMADIYALGATVYKLLTGVTLNTNVMIEAMDKFEANKDIRYLDNSLYSTRNLDLLRKYVDKNTYLFISKMVDPDPNKRPTSKEIKEFFYFRV”, the protein production result is “failed”. The same measure for “MKINWAENLRQNVHQLAESLGNLFVESFHYLALFAIGAVTAWAAVMEFLQMIEVGHIKIDDILLLFIYLELGAMVGIYFKTNHMPVRFLIYVAITALTRLLISNVSHHNPPDLGIIYLCGGILLLAFAILVVRYASSQFPSVKIEHPQRKIGAGSGEHPEVEKGEL”: “failed”. As for “MKIPSVFMLEQQKASLQLHVKQLANEAIQKSAPSAWFEVLYAEAQGDTTQIPWAKLTPHPYLQEWLTNHQPFPSGQKALVIGCGLGDDAEALAKLGFAVTAFDISPTAIAWCGQRFPNSNVNYIVADLLAIPPQWHLAFDFVFECRNIQALPLNIRAEVITSIASVVAPDGTLLLINRVRLEHHHHHH”, the protein production result is on record as “failed”. To “MKIRTIARASLLSAAIALAVTGCNSEPDMSQEDIQYISHVDQARFFQRQGELKASTIEARSAIDLQPNRTAPYFVIIHNLLTAGDAANAERQLDKLLENTNIEELGQSERNQAALIRAEARILQGKHQEALESLDQISSPSPDQQLQADNLKGRAWLTSGDFDKAEEAYQSAFDKHSNNVVAMVGLSRVATAKGDFDTAKERLEKAIEIDAEHEDVWLWRAQFAHAQQQWAEAEQAYIRALETIGQFDVMTFRKYQTISALITVLREQGKSAEAFVYEEILAKSGPGTIKSNLEAAASAYNDGDLNTAARYLQEVLNQVPNHQQSALMLGVIRYRQGRPEEAEKLLAPLADMENADEVRKLLAATRISMRDPAGAKSLLEDLEGSDADPQTLALVGIASLASGDDQSGRQLLEKSLELAPDNHNLRLRYAAYLTQTRDFANAIKQARQIPSDATEALQATILTSQAQALSGNSQTATDTLDTWLKANPDSMAALIARGNLASSLNNTQQAASYFERAHKQHPEEAAPLVALGNLAREQQNTEQAIAWYRQAVETNPNNLPAIQALAGVMKRDQLTGLMQEISSKHPEANGPRLILLESALINNDTLQADELTARLMEREREDQPSPAEPLVAAVYEGIATQMAQRENSERALEILSRGRTLFPENEAIALKVAAIEFSNGNATAARSALQDAKQHHPDSPAPYQVEASYYENQGEHQQAAELYQLALAKRQTAELAIAHARALSNAGRSQNSIEALQEANKQFPNNSSILLTLALQTQQAGQTDAAIEHYQQVLQLTPDNALALNNLAWLYYEAGNSEAASLAKRAYELVPENAAIADTYGWILFEAGEHEQSLAVLERAHSLAPDSQEIAMHLAEAYRATGRTDAAQQIMDKFSTGNNG” belongs “failed”; to “MKISTKDLVLCALFAAISCVLAQISIQLPFSPVPFTMQVMAVYLAGIILGAKKGFISQLVYVVLGAIGAPVFANFTGGVGAILGPAGGFIIAFPFMALIVGCVADKCRTKAYIIISMVLASVVCYVFGALWLVLVTKISFALAIKTAVLPFILFDMLKIIIVSIIGINIRSRIISGGLA”, “failed”. The same measure for “MKKAGILGLIITIIVLVPVGLGFNWYHSNYGTKTYYTQITTKGERKTGKDDSGKPYVYYHYSQPGYSDNGVKKELTFDSVLPRSLKMHAYLKVGYNDKRQQVINWEKVNQKDIPQAALNRIQKLEHHHHHH”: “not failed”; for “MKKDVLIFVKGTQEYPINSLENSIEFFTEGTFYKKGESFYVTYKESELTGLEGTTTTFKIQPNHITLIRYGDVTSTLIFEPGKRHISTYITEEGVIMIGVYTKKMKVDLTENGGEVFVEYAIDLDSHMMSENDFLLKIKEAGVKNLEHHHHHH”: “not failed”. The same measure for “MKKEAESLIEKEHGTNPKISRYWIQRYDLFSKYDQGIEMDEEGWYSVTPEEIAIKQAERCRGKVVIDCFSGVGAIDIDPMKIALAMNNAKVYGVANRIDFVTGDFMQLAPSLKGDVLFLSPPWGGPTYSKVESYKLDMLLPRDGGVERVDSLTHESHNMTRSMKLKKRSRLKKEVKSTIEKDNGRRHKITKYWIQRYDLFSRYDQGIEMDEEGWYSVTPEEIAIKQAQRYRGKVVIDCFSGVGGNTIQFAKVCSSVVAIDIDPVKVELAMNNAMVYGVANRVDFVIGDFIQLAPSLKGDVVFLSPPWGGPMYRDFESYNLDMLQPRDGYSLFQIAQSITPNIIMFLPRNVDLAQVEELAWLSSPPLNLEIEENFVGGRMKAVTAYFSCNAV”: “not failed”; for “MKKFFIIGTDTEVGKTYISTKLIEVCEHQNIKSLCLKPVASGQSQFSELCEDVESILNAYKHKFTAAEINLISFNQAVAPHIIAAKTKVDISIENLKQFIEDKYNQDLDILFIEGAGGLLTPYSDHTTQLDLIKALQIPVLLVSAIKVGCINHTLLTINELNRHNIKLAGWIANCNDSNIKYIDEQINTIEELSGYKCSAKISRNADYLDFIDLSKILISPEENE”: “not failed”. Regarding “MKKFLFDLFPLILFFVAYRYADIYAATAVAITASIAQILWLRLTGKAIEGMHWINLSVIVIFGGATLWLHSDVFIKWKPTVLYWLFGGALLGARYLFGRNLVRRLLGKQIALPDPVWERLNLSWALFFVAAGAVNLYVAFSGHFTESQWVNFKVFGLMGLLVAFVIAQSLWLGKHLQASDTPDQDRNED”, the protein production result is reported as “not failed”. In the case of “MKKFLFILSLFCVLSYAYELKLNANITALKLDKQNLYIGTDKGEILQYNIKDKSLKELLSLPKIKNYYGDDFAKIYNIDIFKHTLLILSEGDFGAKNLSFYKENLQIKKLEENSIIKAFFINENTYLLISIGSEIELIDKSLKNIKKFNFSHSSLNDAVLNEDKSRLIAGFESGEVELFDLKNWKMLKNYDKMHKDNIYQVDFKNNVILSCGTDRRIGVVKNEEQNFLQKDFLIYTCALSPSGEFAVYSDNEAGVSEVFSTSDFKPVKTFNNENLMSEFIIFLNNKDFIVSGFGDSIMFRSIDE”, the protein production entry is on record as “failed”. As to “MKKFLSFISFATIVSLVLSVFAKPYTEILRFKTTQQIAPRTYYEKYELLTDEGFVDINCIKLDLIDGGFDFDVLKSKVANTGDFVYNMVSSQIDKNPIAAINANFFYTNTKTDYNKIWPIGISVSGGKILSSPNNKQNTFPAFVYTTSNEILFDYINGLLYKLVNLDSGYEFKIAHVNKFTGDLTYPILFTGDYVQKTIGNKYKGIVELIIKDGIIKDIREEKQTVALDKNEYLLVATGNYAKNLKANFKVGDKVSLKIDLSIPLEKIKAAASGNTFLLKDGKIPSFTHEIAGRHPRSAIGIDKTGRYLYLVAVDGRNGKSIGLSQGELASFLQSIDVWTAINLDGGYSTQLIAKDNDGKFKAFYNIGETRKVFDSIAAFYKYRDDKIATFYIDCPDRVFAGEEYPIKVYAKDRFYNTITYDAVYLKVYQDAYEIDIKDGTFIPYKDGVVTISCVYEDVYQKAFAQKKISVYKPEILTTNKKQLYLLPGESARLRFYIKDKLGHFKEIDPRKVQAEKNPAFEFKDGSFIAKSNFRGFVTFSYKDLKCSIPVGIGETLQLLRSFDYLALSWPKGVSMFLSSKNKTQGKYSNKVYFSVSSTKGKSFKLNFKTPVDLTNINKISFDLCAKNVKVYLGFKMPNGTQKEVEIPQSKSDNFKSYSLNVESYKTLDYILLIPQKTQGYIWIDNLKGNVVNLPPVEAINQYVAKFDSKLAKSSVILLTKSFESLPSDTKKKVESNLGSYLKCYNLEKGNPPYEKNEKFNIVFLRTKSGSILDFSFYQWIRIKNLSAEKKPLIVVLDIPFESLKQNEKDILIRLLKSRKAPSMIICTTSDYTRVERYDTLYIGYASSNDLLAKSSTKSVNLACDVEKGYIYLARGY”, the protein production entry was “failed”. The same measure for “MKKIAVFADVQNLYYTVRQAYGCHFNYAALWADISKRGEIVHAFAYAIDRGDSKQQQFQQILRNLGFTVRLKPYIQRSDGSAKGEWDVGITIDIMDFAPQVDEVVLASGDGDFDMLLDRVISKHGVEAVAYGVPGLTANSLIRAASRYVPIEGALL”: “not failed”. To “MKKIEIFDPAMCCPTGLCGTNINPELMRIAVVIESLKKQGIIVTRHNLRDEPQVYVSNKTVNDFLQKHGADALPITLVDGEIAVSQTYPTTKQMSEWTGVNLD” belongs “not failed”. For “MKKIFYISLGFISLGIGIAGIVLPVVPTTPLVLLSAFCFSRSSEKFDIWLRQTKVYKYYAADFVESRSIAPARKKSMIWQIYILMGISIYFAPLMWLKLGLLIGTIVGTYVLFYVVPDKIDE”, the protein production entry is on record as “failed”. On to “MKKIGIIGAGGIARAHATALSTIKNAELVGVYDINQQNAESFVKTFGGKSFENVDELIDASEGLIVASPNFCHKEHALQALGKHKHVLCEKPMAISLEEASIMKDTAERLSVRASMGFNYRYLSYVNILKSLIINNELGNILSIKVHFKKNSALRRKKFTWRDDANSKKTSGSLGDLGIHLIDMVWYLFESDFITESVRAKMNTNVKTKEDKQVLVDDYAEIYGQLRNKVFVNIITSKCSVPEDCGFSIEVVGHKKEFKYHTGNPHVYKLIDGLNVVDCPVPQSLLNDPPNEFYGWADSFRSELINWIASTQNDWVEIPSFSDGFRSQEVLEMFFEKDS”, for which the protein production entry is “failed”. Consider “MKKINSAVLSIASNSMLIIFKLTAGITMNSISVLSEGVHSSIDLIASLIAFFSIKKSSLKEDDDHPFGHGKYENVSGFVEAILIMFAAIMIIYEAFNKLVSNSHVKNIDSGIYIMLISSAVNLFISIILLKSSKDTNSIALEADGMHLFTDFFTSLGVFLGLVLLKLTNIKIIDSITAFLVAILIIKTAVDLIKKSLRDLVDSSLDKDDINKIVKIVKKYPNIKEYHKLRTRRCGNTREIDIHIQIVGTDSLKETHDICSSIEDEIRRVFPDSCTVIHAEPYIEKFHKKSLT”, for which the protein production entry is on record as “failed”.

“MKKITIISGHPNHESSISNKAILEYLESNVMESQLNIRKLEDLNTHFEFNVIQEQEALLQADTIIFQFPLFWYSFPALMKKWIDDVICYGFAFGGEKGAQLKDKQFIFSFTIGGQESAYGNEKEIALTIDELLKPLKQMLRYCQVKDINYVYSHNMLYIPDMYGSIEDINVRSECHAIKLLSMVN”: the protein production result is recorded as “failed”.

Turning to “MKKKKYLKWWIAAVSAVFIVGAGIFVYTQYKAAQTSGDVATKDGTSASASDITWNGKTYSYNEHLSNFLFLGIDTKEKAETKTGQADAGQADALYLLSWNRLEGDITVISIPRDTMTQIETFGPGGKSLGKSKDHISLSYAYGDGGYESCELAENAVSELLYGLPIDGYCALNMDGLPVLTDSVGGVTVTVPNDSLAEVDPGYAKGAVVTLKGEDTEQFVRYRNTEISQSAIARMERQQEYIRAFGEALKKASADKALVTDLYKAIEPYMVTNMGKSRFVDLTESVSEGKKVNRWTIPGEGIQGKEYDEYVVDDDALYEKTVETFYVEKK”, the protein production entry is “failed”. To “MKKKKYVNSGTVTLLSFAVESECTFLDYIKGGTQINFTVAIDFTASNGNPSQSTSLHYMSPYQLNAYALALTAVGEIIQHYDSDKMFPALGFGAKLPPDGRVSHEFPLNGNQENPSCCGIDGILEAYHRSLRTVQLYGPTNFAPVVTHVARNAAAVQDGSQYSVLLIITDGVISDMAQTKEAIVNAAKLPMSIIIVGVGQAEFDAMVELDGDDVRISSRGKLAERDIVQFVPFRDYVDRTGNHVLSMARLARDVLAEIPDQLVSYMKAQGIRPRPPPAAPTHSPSQSPARTPPASPLHTHI” belongs “failed”.
